Square brackets hold non-standard residues; d marks the D form. Ends that are not written are not given here. Peptide text beside a SMILES is read from it. * marks the point of attachment. Biotin = O=C1N[C@H]2[C@H](CS[C@H]2CCCCC(=O)*)N1

The values that follow come from PMC10252837, “A Novel Time-Resolved Fluorescence Resonance Energy Transfer Assay for the Discovery of Small-Molecule Inhibitors of HIV-1 Tat-Regulated Transcription” (International Journal of Molecular Sciences, 2023).

Data set [1] concerns the target T1, Tat (ARM)-TAR RNA interaction (Human immunodeficiency virus type 1 group M subtype B, UniProt P04608).
T1 construct: purchased Peptron, Daejeon, Republic of Korea (custom peptide synthesis); host or cells: chemical synthesis
In words: TR-FRET assay with biotinylated ARM and Eu-conjugated StAV. It is filed as binding, HIV-1. Particulars: five-thousand-fold excess. The text has this: Initially, a simplified TR-FRET assay was designed to determine the interaction of Tat (ARM)-TAR RNA using 5′-cyanine 5 (Cy5)-labeled TAR RNA (31 nt) and Tat (ARM) tagged with either biotin, HA, FLAG, or FITC; this was based on size-minimalized analytes to focus on the essential biochemical relevance of the Tat-TAR RNA interaction. After Tat (ARM) binds to the TAR RNA, each Eu-conjugated antibody recognized the cognate tag on the Tat (ARM) peptide. When the reaction is irradiated with a 320 nm laser, the emissive energy from the donor Eu chelate is then transferred to the Cy5 dye-labeled to TAR RNA placed at a close distance (~10 nm), resulting in luminescence at 665 nm from Cy5 and 615 nm from Eu. A certain substance inhibiting the Tat-TAR RNA interaction causes the loss of luminescence in the sample at 665 nm emission (Figure 1A). To determine which Eu-conjugated recognizer (anti-Flag, -HA, FITC antibodies, or streptavidin) is appropriate for successfully establishing the TR-FRET assay, 20 nM of ARM tagged with each epitope and the same concentration of Cy5-labeled TAR RNA fragment were incubated with 5 nM of cognate Eu-conjugated recognizer.
StAV-Eu + + + + + + + + + + + + + + + + + + + + + + StAV-Eu + + + + + + + + + + + + […]
Bio-ARM + + + + + + + + + + + + + + + + + + + + + Biotin-ARM - + - + - + - + - + - +
Competitor BSA ARM L-22 LK-3 L-50
Figure S1. […]

In data set [2] the target is TAR RNA. Further details: method as in PMID 19584251. Particulars: EMSA; read-out: Kd determined by EMSA; cited from earlier work.
For data set [3], the system named is Tat (ARM)-TAR RNA interaction. The procedure: To test whether our assay is applicable for screening specific inhibitors of the Tat-TAR RNA interaction, inhibition assays were performed with known inhibitors of the Tat-TAR RNA interaction. […] A dose–response competition assay was conducted at inhibitor concentrations of 0–100 μM to determine their inhibitory curves in our assay. […] Additionally, a dose-responsive competition assay using RNA fragments was performed to validate the specificity of the assay.
Data are expressed as the mean ± SD (n = 3) compared to a control lacking an RNA competitor.
The indicated concentrations of ARM and Cy5-TAR RNA fragments were incubated in 20 μL of 1× LANCE ultra assay buffer in 384-well microtiter plates with or without inhibitor (competitor) for 30 min at 20 °C in the dark. […] The reaction was performed in a final volume of 25 μL. Small volumes of the reaction solution were added automatically using Assist-Plus (Integra Bioscience, Zisers, Switzerland). After adding all the assay components, the plates were sealed with a clear cover. The ARM-TAR RNA interaction signal was measured in an EnSight multimode plate reader (PerkinElmer) using the LANCE protocol of the time-resolved fluorescence (TRF) mode in the Kaleido software (PerkinElmer), according to the manufacturer’s protocol. Briefly, the excitation light was directed to the donor (Eu) from the Xenon flash lamp at 320 nm selected by an optical filter, and then, an integration time of 100 μs and a delay time of 70 μs were provided to remove short-lived background signals; subsequently, two emission lights were detected at 615 nm for the donor (Eu) and 665 nm for the acceptor (Cy5). The TRF was measured from the top using an excitation filter and emission monochromators in a single measurement mode. The TR-FRET output signal was expressed as the emission ratio of acceptor/donor (665/615 nm × 1000) fluorescence counts. The fold activity of the TR-FRET signal for ARM-TAR RNA interaction was calculated compared to the control reaction lacking the ARM peptide.

The subject of data set [4] is HIV-1. As to conditions: read-out: IC50 of HIV-1 infection; cited from earlier work.
Data set [5] deals with L-50 cyclic peptide. In words: TR-FRET competition.
The subject of data set [6] is L-22 cyclic peptide. In words: TR-FRET competition.
Data set [7] relates to L-51 cyclic peptide. In words: TR-FRET competition.
The subject of data set [8] is LK3 peptide. In words: TR-FRET competition.
The target of data set [9] is T2, Flag-Tat (ARM) (HIV-1 NL4-3, UniProt P04608).
T2 chain: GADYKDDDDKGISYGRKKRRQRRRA
In words: TR-FRET; up to 100 nM each; Eu-anti-Flag 5 nM. As to conditions: tags: N-terminal FLAG; label: 5'-Cy5; hairpin with UCU bulge.

In data set [10] the target is T3, Tat (ARM), tag-free (HIV-1 NL4-3, UniProt P04608).
T3 chain: GISYGRKKRRQRRRA
In words: competition; TR-FRET, 10-fold excess over Flag-ARM. Particulars: label: 5'-Cy5; hairpin with UCU bulge.

For data set [11], the target named is T4, Biotin-Tat (ARM) (HIV-1 NL4-3, UniProt P04608).
T4 chain: Biotin-GISYGRKKRRQRRRA
In words: TR-FRET; 20 nM each; Eu-StAV; poorly competed by free ARM and L-22. As to conditions: tags: N-terminal biotin; label: 5'-Cy5; hairpin with UCU bulge.

For data set [12], the target named is T2, Flag-Tat (ARM). In words: TR-FRET; 50 nM each. As to conditions: tags: N-terminal FLAG; label: 5'-Cy5; hairpin without bulge.

Regarding `CC[C@H](C)[C@@H]1NC(=O)[C@H](CCCNC(=N)N)NC(=O)[C@H](CCCNC(=N)N)NC(=O)CNC(=O)[C@H](CCCCN)NC(=O)[C@H](CCCNC(=N)N)NC(=O)[C@H]([C@@H](C)O)NC(=O)[C@H](CCCNC(=N)N)NC(=O)[C@H](C(C)C)NC(=O)[C@H](CCCNC(=N)N)NC(=O)[C@@H]2CCCN2C(=O)[C@H]2CCCN2C(=O)[C@H]([C@@H](C)CC)NC(=O)[C@H](CCCNC(=N)N)NC1=O` [Hit L-22] (cyclo(RVRTRKGRRIRI[dP]P)), the “inhibition of TR-FRET signal, in words” value in data set [1] is “insufficient inhibition”. Besides, the Kd in data set [2] was 30 nM. In addition, the IC50 in data set [3] (read-out: IC50 of ARM-TAR RNA interaction (TR-FRET competition), 50 nM Flag-ARM and 5′-Cy5-TAR RNA, inhibitor 0-100 μM) stood at 228 nM.

On to `Nc1ccc2oc(-c3cc(F)c(F)cc3Cl)nc2c1` [Hit T0516-4834], for which the IC50 in data set [4] was 200 nM.

As to “GGCCAGAUCUGAGCCUGGGAGCUCUCUGGCC [Cy5-TAR RNA (31 nt)]”, the IC50 in [5] came to 95.9 nM; in data set [6], 228 nM; in [7], 276 nM; in data set [8] it was 67.8 nM.

Turning to GISYGRKKRRQRRRA [ARM], the “inhibition of TR-FRET signal, in words” value in data set [1] is reported as “insufficient inhibition”. In addition, in data set [3] (500 nM competitor, control of primary screen), the “inhibition of TR-FRET signal” value is on record as ~ 70%. In [3] (10-fold excess competitor, 50 nM analytes), the “TR-FRET signal in peptide/protein competition assay, in words” value is “significantly decreased”.

As for GGCCAGAUCUGAGCCUGGGAGCUCUCUGGCC (structured_RNA) [Cy5-TAR RNA (31 nt)], the binding signal in data set [9] is ~11 fold signal over background. The binding result in data set [10] and in [11] was “binds” throughout.

Turning to GGCCAGAGAGCCUGGGAGCUCUCUGGCC (structured_RNA) [Cy5-mt TAR RNA (28 nt, bulge-free)], the binding result in data set [12] is listed as “no binding”.
